From PMC10653834, “Conformational variability of cyanobacterial ChlI, the AAA+ motor of magnesium chelatase involved in chlorophyll biosynthesis” (mBio, 2023)

Experiments:
[1] = target: T1, ChlI (Nostoc sp. PCC 7120 = FACHB-418, UniProt P58571); assay: cryo-EM structure of hexamers under turnover; type: binding; settings: ADP formed from 10 mM ATP, 50 mM MgCl2, pH 7.5; nucleotide pocket at monomer interfaces
T1 construct: full length, N-terminal His6 tag (kept), pET15b, E. coli LOBSTR; approximately 40 kDa; ATP-induced hexamer (also pentamer); residues 1-13 and 354-374 not modelled

[2] = target: T1, ChlI; assay: cryo-EM structure of hexamers under turnover; malachite green ATPase assay; type: binding; settings: 10 mM ATP, 50 mM MgCl2, pH 7.5; nucleotide pocket at monomer interfaces; hydrolysis at 37 °C
[3] = target: the molecule itself; assay: cryo-EM structure; 0.5 mg/mL ChlI with 10 mM ATP, 50 mM MgCl2, 0.05% LMNG, 1 mM DTT; no symmetry applied
[4] = target: the molecule itself; assay: mass photometry; ChlI incubated at 0.5 mg/mL in Tris buffer with 10 mM ADP and 50 mM MgCl2; diluted before measurement
[5] = target: the molecule itself; assay: mass photometry; ChlI incubated at 0.5 mg/mL in Tris buffer (20 mM Tris, 200 mM NaCl, pH 7.5) alone or with 50 mM MgCl2, no nucleotide; diluted before measurement

With `Nc1ncnc2c1ncn2[C@@H]1O[C@H](COP(=O)(O)OP(=O)(O)O)[C@@H](O)[C@H]1O` [ADP] the “cryo-EM structure of hexamers under turnover” value [1] was “conformation B has ATP bound in four monomers and ADP in two”.

`Nc1ncnc2c1ncn2[C@@H]1O[C@H](COP(=O)(O)OP(=O)(O)OP(=O)(O)O)[C@@H](O)[C@H]1O` [ATP] was tested, and the “cryo-EM structure of hexamers under turnover; malachite green ATPase assay” value [2] was “Conformation A is characterized by ATP molecules bound in five monomers and ADP in one”.

B1: Nostoc sp. PCC 7120 ChlI, motor (AAA+) subunit of magnesium chelatase (enzyme, UniProt P58571 1-374, looked up)
chain: MTPTAQTTASARRVVFPFTAIVGQEEMKLALLLNVIDPKIGGVMIMGDRGTGKSTTIRALADLLPEIPVVANDPFNSDPSDPDLMSDEVRQKSGTGAEIPIEFKKVQMVDLPLGATEDRVCGTIDIEKALSEGVKAFEPGLLAKANRGILYVDEVNLLDDHLVDVLLDSAASGWNTVEREGISIRHPARFVLVGSGNPEEGELRPQLLDRFGMHAEIHTVKEPALRVQIVEQRSEFDQNPPTFLEKYNPEQTALQKKIVEAQKLLPEVKLDYDLRVKISEVCSELDVDGLRGDIVTNRAAKALTAYEGRTEVTVDDIRRVITLCLRHRLRKDPLESIDSGYKVEKVFARIFGVELLEDDSSQKNGAGQIKTGVR
notes: Magnesium chelatase subunit ChlI of Nostoc sp; PCC 7120, gene all0152, amplified from genomic DNA; The printed forward primer places ATG and six His codons before codon 2 (ACT CCA ACA ...); the reverse primer includes the stop codon; Model building counts residues 1-374; Oligomeric state depends on the nucleotide (monomers/dimers without; pentamers and hexamers with ATP and MgCl2); also called …
With B1 the “stoichiometry N” value [3] was 5, the “stoichiometry N” value [4] was 6 and the “stoichiometry N” value [5] was 2.
